B1: mAb 319C07 (antibody, V domains shown)
VH: QVQLQQWGAGLLKPSETLSLTCAVYRGSFSAYYWTWFRQPPGKGLEWIGEINHRGYTNYNPSLRGRVSISVDTSKKQFSLKLRSVNAADTAVYYCATLRSTSGWHDYFDYWGQGTLVTVSS
VL: EIVLTQSPGTLSLSPGERATLSCRASQSVSSSYLAWYQQTPGQAPRLLIYGASSRATGIPDRFSGSGSGTDFTLTISRLEPEDFVVYFCLQYGSSPLTFGPGTKVDIK
notes: heavy chain variable region of 319C07; human IgG1 heavy chain constant region (soluble IgG1 expression vector); kappa light chain of 319C07; also called antibody 319C07; AntiBKV; source: HEK293F, transient transfection, purified from supernatant (Protein G)

Legend:
[1] = target: BKPyV VP1 serotype Ib1 pentamer (aa 31-300) (BK polyomavirus) (UniProt P03088); experiment: crystal structure; VP1 Ib1 pentamer mixed with 319C07 Fab 1:1.7, complex isolated by SEC; hanging drop, 20 °C, 21% PEG1500, 0.1 M MIB pH 4.75; 1.96 Å
[2] = target: T1, BKPyV VP1 serotype II pentamer (aa 31-300) (BK polyomavirus serotype II, isolate …, UniProt A1IHZ0, strain); experiment: cell-based or functional assay
[3] = target: T2, BKPyV VP1 serotype III (BK polyomavirus, serotype III (isolate …, UniProt P14996, strain)); experiment: cell-based or functional assay
[4] = target: T3, BKPyV VP1 serotype IVc2 pentamer (aa 31-300) (BK polyomavirus serotype IVc2, isolate …, UniProt B6VQF5, strain); experiment: cell-based or functional assay
[5] = target: T1, BKPyV VP1 serotype II pentamer (aa …); experiment: ELISA; VP1 coated on the plate (1 µg/ml, 4 °C over weekend), blocked with 5% skim milk; antibody dilutions in PBS with 0.5% skim milk 1 h; HRP goat anti-human IgG; apparent EC50, three-parameter fit; settings: both partners purified
[6] = target: T2, BKPyV VP1 serotype III; experiment: as above; settings: both partners purified
[7] = target: T3, BKPyV VP1 serotype IVc2 pentamer (aa …); experiment: as above; settings: both partners purified

Molecule	stoichiometry N [1]	IC50 of neutralisation of BKPyV serotype II pseudovirus (luciferase in HEK293TT cells, 72 h) [2] [pM]	IC50 of neutralisation of BKPyV serotype III pseudovirus (luciferase in HEK293TT cells, 72 h) [3] [pM]	IC50 of neutralisation of BKPyV serotype IV pseudovirus (luciferase in HEK293TT cells, 72 h) [4] [pM]	EC50 [5] [pM]	EC50 [6] [pM]	EC50 [7] [pM]
BKPyV VP1 serotype Ib1 pentamer (aa 31-300) (from UniProt P03088 31-300) (domain or fragment)	5	–	–	–	–	–	–
B1	–	0.35	29.5	0.88	60	60	60

From paper PMC12289034, “A highly potent human antibody neutralizing all serotypes of BK polyomavirus” (PLOS Pathogens, 2025)
